According to the DeepSol protein solubility set:

Test: soluble on expression in E. coli; label from the status in PepcDB or PDB records

Row | Sequence | soluble on expression in E. coli
1 | METDLLDADECSENEKTLESIEKVFSASHLLVKILEFSSAQHRQKLYIAGSRSRQGDLKGFLDLRLVNQQFNEGVCIAVRKEFKHIQIDIDDNFVRCNYFTIGLHHKPPEPGNRENANVEGEDGNPVEEDEEMPAHEDLPSEDTEDVRFLVKFLRWLAGTFDPIVENFKVFDSWSFKPCSLPPSWADRLTVFISMHPDMEYCNCEQCIRIARNCKESFGPLSFRMVEDALRDQNISYGALTFTDAFLADIAIAYTISIDNRDRFDANRFIRDFGGIRVDELTFAVQTLATYRDERPKPQPLEVLQLILRLWEAKTVEFEIVKFMENDYYLQRCAWERSGAFTLAHFATYSFQHFDEFVHVVPYKFSGTLDRDLRNEIMPIFDLRIDPSEGPLRMGSNLSLLSLASQNNENSTFTWINQGRIAFNMFRANHYMFITSGIVEFRGMLGTANWLKFTIRDMMRSTWGPRGSNVTERGKTVYWINFMEDVGDCIQIVWSEHAKELLETNFPNLVVTMNSSHAFRNCSNRRAATYNDSKRPDVQKKPINTFYCTFYDSVRNNTTHMKLIQIAN | not soluble
2 | MGSDKIHHHHHHMDEQLEQLMRQLSGLNEQVRNGAVYQSLGTRLGKLMDGIQRRRRTAVVLPDDQDGVKDVLAELRHQLEQNVPVTLTHEKLTLLTAHLSSTDMALRYQGINFTLYDALQQDALDSAQMAFLLDELSRPDALFSHILEPANTAVFGRSARVAMLAVILHFVTPDVQSHTPDLRRIVILAAMYLCLETDTRGFVNQHGWAHAFTAITDLLTVLAGTEALPRADKLFLMMTLLERVKRLNTPLIYGENDRMAMYLSELANRHQLYADTLLLSLKQWRQQVALHRRPDTIAGWNRFFNRKRLLDSLRLQSELPASLQKYLNSTIDFLG | not soluble
3 | MGSDKIHHHHHHMSSVHHKIIKHKIGLLNLAAELGNVSRACKVMGFSRDTFYRYQAAVETGGVEALIDANRRKPNIKNRVEEATEAAILAFALEQPAFGQVRVSNELRKRGIFVSPSGVRSVWLRQNLESFKKRLSALEKHIAETGAVLTEAQVQALEKKQEDDVAQGEIETAHPGYLGSQDTFYVGTLKGVGRIYQQTFVDTYSKWAAAKLYTNKTPITSADMLNDRVLPFFAEQSMGIIRILTDRGTEYCGKPENHDYQLYLALNDIEHSKTKANHPQTNGICERFHKTILQEFYQVTFRRKIYQSIEELQHDLDDWMAYYNSVRTHQGKMCCGRTPMQTLIDAKEIWDDKITELNN | not soluble
4 | MPDEATKGSATIPPSSSTPFWWREKRSPKVQYHRSAYPRSRSSDADCRQGNEGMNFIAKHFFEYQSFMNIPHKAVHLHKVPASQAGTDPSMGWAPKNMLKAGKHQPAPGARANRVHRDPRPNGTKYGRAGKHEHREWGDRHGELRDEKVACHKDAWTKFLANDDQGARTAFECDFEDRVLATEEETLQEKLCRTSPEAMNLNALYAAANKAVSCGGDVCELLTILTYAPTVQFVTTTVKKAKALPYNNAPFARIMLFEGRRLMEQKQTTVNPSLVHKSSVDGSKPSSSSASTSSNDNPSDVSFSESFLFHVPPTKLDRSHIVIELYDHDDEGGLQKIGHCVIGRLVDGTGNAHWIQMVRQHGLPVCMWHKIGHN | not soluble
5 | MGSDKIHHHHHHMSPPVRPVDHLIPEGAMTSFFDFAISQLPAATADRRGPAPDDIDAMLRRDSFAAALRLLAGSFIALYEGSPEMTTLFATRQSRLLCHALLALYFQKSTAEEGEIALTREDFGHLALRHGLASDRVAYVFFKEALKRGLTRPVDATEDQATGVVPSPPALAMLAQWYDVHFQALDLLDEGFRASRFIQRSETTLPHIHPHVSRAFLSHPEVRCPGPLSIIFNWFDAGGLLMDRLIAGIDRELPAEQGRRFTDVQTVTQLATSLSLSRSHVGRKLAAAELIGGIGWSGRRGRSALWISQGFYEEYARTQARKLLILDEALIGFV | not soluble
6 | MGASQSAEQEARPEVVRIDRNEIPEEYKTVGVSSDVVSRVNATRVAGNDGESDRLRQELAREREEKARLREDMAKLSQLQQRKTAGISAAPVSISGNDLEERKKIFDDTVERVQKQFFAYHRENVCQDNENEIVRCLQENPGRVLKCAPLTEAFEKCVGEFRQQVLKGN | not soluble
7 | MSTKRKIVVSSDSDDDMPFTQEKQKKAATPAKKRTKPVVLTDDDEEEENAPQKKTAPKRSRKQEKEESDITSDEDELVRGTDEKKKRKGGKKELPVGQKTLDYMFKPSSSSSKRDDPKKKVEKTLVNPADFFKNSPAPSASKLPKVAPKTVEKPKTPAKKPVEISPSTKENTKTKKVSDDEFVDSDDSFDTFTPITVKKKTPEKRKETPKKKELPSVKKEFPKKQSIPVKKEKETPQKKALSVKKDPPKVTSESSSSSQVSTSSVVFQPKPSGPPPALSWVDKYKPKRMGELVGQNGDKSPINKLLEWIKDWAKHNLGEGAKIKKPKPAPWMSSQDGTSFKAALLSGSPGVGKTTCAYMACQQLGLQLVEMNASDVRSKKHLEAKIGELSGSHQIEQFFGAKKCAPQDNQKVHHILIMDEVDGMSGNEDRAGISELIQIIKESKIPIICICNDRQHPKIRTLANYCYDLRFPKPRVETIRSRMMTICSQEKMKIGKEELDEIIELSGHDVRQTIYNLQMRSKGVGAKINQKDMAVDAFSAARRLLDSRTTLMEKQEMFFTDYGIMPLFVQDNYLNMKNEKHSPIQAIRGIRKAADFISLGDLIDRQIRGGGSWKLLNEQSMISAALPAIATGGHLKAMIQFPSWLGKNSTAGKRKRLLQQLVQHTHLKVSAGTHSFATDYAPMLRQKITKPLLEHEADGIPDVISTMTEYDLIKDDTEALTEIVAWPGKIDPASKILSKVKASLTRTLNKTGRMLPYSMDSVSKGKKRGVNSIGIEMDEEGNLVEKFEDEDGESDNEDNEEKTTDVVIKVRTGGGAGASKSARGGRGGGRARGGRGSKK | not soluble
8 | MGSDKIHHHHHHMKGMEEVVIDAKDMHYRELNEKIHEILRENPDIKKIVLKNVLGQRFIADGIQKKDLTIEIYGIPGGDLGMFMSGPTIIVHGNAEFAPGNTMDDGTIVIYGSSGDVTAHSMRGGKVFVRGDVGYRSGIHMKAYKDKVPVLVIGGRAKDFLGEYMAGGIIIVLNIDEKGNDLGKVKGRMIGTGIHGGAIYIRGEIDKDQLGVAADIKEFTEEDLEKIKPYIEEFCKWFNLPEDVKNKLLNSKWTKIAPISKRPFGKLYTPDLM | not soluble
9 | MSSTKIDTTKPLSILLLGVDTGADGRIDKGNSDTIMVVTINPQTKKTLITSIPRDSLAEMVGDQDTNVQKLNAAYNIGGSKMAKASVSKLFNVPIDYYATINMGGLKQIVDAVGGVTITSPLNVSFDHITVTKGKHHLNGKQALSYTRMRYQDPRGDYGRQLRQQQVMRAVLAKLAETKTYSRYNQLLTSLKGNLQTDLSFNDLVGLATHDRANMKHIQSTQVIGSPAWINTSSYQILSTKTLQQTSDRLRTQLGLSTETLTNMETKLNAKNTVYDGKTNLNYDTQGLDKITYSDNTKLEHHHHHH | soluble
10 | MAHHHHHHMPGRPGSAEELYGLVCALQKQQQLTQVDLRAVQRRTEALRQELHCQEALIAEEQAKREELAAKHTPGDAELRLAEAHARGAARASADAAQELRGARRAFLQKCHAQVLSVGKGPTDPRRSGAPVAPSNCTPLSSAADESSSGSLSAVGLGPRREATLMPAAAVRQLLLLLREKLMRCIEVGSTAVPAPFVVASVVAPATEGGSSEQPRDCRPSDEQGAAAKVATSVMSPLTAAKSPHGPPSKSVTDACVRGASDDQSPPREKKSIGFAPECCFERVTAVPAANVNRGTRETWLTEGAPGACGSTAVVPPAANVTLDGDNHPSNACLRNDSRPRTQRFDGHFTVRVASRSATLVAEAAAMGAKRQRASEAAIAAQSSPPKAARADGDKGVSASRAPQGAGVAAAFPPAYTSNRDRLVAPVDLLSPRSAEARRNGSSGSGRRTVWTWTRGTSREP | not soluble
11 | MGLNVREGEIMAKNRSRRLRKKMHIDEFQELGFSVAWRFPEGTSEEQIDKIVDDFINEVIEPNKLAFDGSGYLAWEGLICMQEIGKCTEEHQAIVRKWLEECKLDEVRTSELFDVWWD | not soluble
12 | MSLTNLDFHIVKRIRQRIAQGGDNAALKHKQNGQWQAINWHQFGEQLDELSMALLAQGIGVQDKIAIFSNNMPRWTIADFAALQIRAVTVPIYPTNTPEQAAYILQNADVKVVFVGEQAQFDAALSQFEQCPELRLIVAMNANIDLKQASCAMHWDEFVAQSHHQDRAPLDALIEQANYDDLFTLIYTSGTTGTPKGVMLDYRNIGAQLEGHDQRLNLTQEDVSLCFLPLSHVFERAWTAYVLYKGATNCYLQDVAHVREALAEVRPTVMCAVPRFYEKIFSAIHEKVVKAPLVRKVLFTWAVNMGAKMAVCRQQQRQPSWMLKQSHQFADKLVLSKLRALLGGRINFMPCGGAKLDETIGRFFHAIGINVKLGYGMTETTATVSCWDDHCFNPDSIGLSMPGAQVKIGENNEILVRGPMVMRGYYKLDKETTESFDEQGFLKTGDAGHIDENGNLFITDRIKELMKTSGGKYIAPQVIEGAIGKDHFIEQIAVIADTRKFVSALIVPCFDSLEEYAKELNIKYHDRLELIKHSQVLEMFEKRVNELQKELAKFEQVKKFRLLPKAFSMDSGELTPTQKLRREGHHHHHH | soluble
13 | MNSGNMQDTLDLEKKLRGYLFGTACADALGRPVEHLTLKQIKEKYGEKGILELPPNSSWTDDTQLMLVLARGLLHGAEFELPELMKHIAGELVLWLKEPDLGAGATTKGAALSLKDGIHWSESGLNSKTCGSLMRVGILGFIFSNDPDKLIEAASLSGRITHNHPTADAASVAGAYAVKLALDGIAPEDMFLPLLRVTEGISDEFTEALKHSYELAHSNLSDEEALQKLGQGWYADETFALAYFCILRYPDNYKKAVQTGVNITGDSDSVGSVAGGILGARLGIEAVPVSWVESLKEKEIIEEMVEPLIEKYLEVSENKHQVSEDGFGAMAGDPLEHHHHHH | soluble
14 | MGSDKIHHHHHHMSQMHQQLINEYTRTRLNEEAVSIERIYFYKTDKRVNPKQEEPFWHAAGDIPILVSAPHAVRHFRQKKIKMSDEYTGSIVYLLNKLTGCHAIAVTKLYGGDPNVDSPCIYKEKLAQLCRQGKIKLLLDIHGAARDRDFDVDFGTNNRRNLLEKMHTDEILAQNFRNCGFSKISSDYFAASSPNTIANFAARELGIPAVQIEINKHYRVPAQNPQGFHRLMAALVESINSVGRRYQEGWKDINRERKIR | not soluble
15 | MAQPSTTYKFELNLTDLDRGVYESVKQTIARHPSETEERMTVRLLAYAFWYNEQLAFGRGLSDVDEPALWEKSLDDRVLHWIEVGQPDADRLTWCSRRTERTSLLAYGSLRVWEGKVIPAIKNLKNVNIAAVPQDVLEVLAKDMPRVIKWDVMISEGTVFVTDDRGQHEVQLQWLTGERG | soluble
16 | HSLLPVDDAINGLSEEQRQLRQTMAKFLQEHLAPKAQEIDRSNEFKNLREFWKQLGNLGVLGITAPVQYGGSGLGYLEHVLVMEEISRASGAVGLSYGAHSNLCINQLVRNGNEAQKEKYLPKLISGEYIGALAMSEPNAGSDVVSMKLKAEKKGNHYILNGNKFWITNGPDADVLIVYAKTDLAAVPASRGITAFIVEKGMPGFSTSKKLDKLGMRGSNTCELIFEDCKIPAANILGHENKGVYVLMSGLDLERLVLAGGPLGLMQAVLDHTIPYLHVREAFGQKIGHFQLMQGKMADMYTRLMACRQYVYNVAKACDEGHCTAKDCAGVILYSAECATQVALDGIQCFGGNGYINDFPMGRFLRDAKLYEIGAGTSEVRRLVIGRAFNADFH | soluble
